Key:
AncSZ = assay: phosphorylation enrichment, bacterial display (enrichment ratio); higher = better substrate or ligand; peptides without Tyr show the background
EPHB1 = EPHB1 (UniProt P54762); assay: as above
EPHB2 = EPHB2 (UniProt P29323); assay: as above
FGFR1 = FGFR1 (UniProt P11362); assay: as above
FGFR3 = FGFR3 (UniProt P22607); assay: as above
Fer (mouse) = assay: as above
Fes = Fes (UniProt P07332); assay: as above
Fyn = Fyn (UniProt P06241); assay: as above
Hck = Hck (UniProt P08631); assay: as above
Chain of Hck (P08631 whole entry, looked up): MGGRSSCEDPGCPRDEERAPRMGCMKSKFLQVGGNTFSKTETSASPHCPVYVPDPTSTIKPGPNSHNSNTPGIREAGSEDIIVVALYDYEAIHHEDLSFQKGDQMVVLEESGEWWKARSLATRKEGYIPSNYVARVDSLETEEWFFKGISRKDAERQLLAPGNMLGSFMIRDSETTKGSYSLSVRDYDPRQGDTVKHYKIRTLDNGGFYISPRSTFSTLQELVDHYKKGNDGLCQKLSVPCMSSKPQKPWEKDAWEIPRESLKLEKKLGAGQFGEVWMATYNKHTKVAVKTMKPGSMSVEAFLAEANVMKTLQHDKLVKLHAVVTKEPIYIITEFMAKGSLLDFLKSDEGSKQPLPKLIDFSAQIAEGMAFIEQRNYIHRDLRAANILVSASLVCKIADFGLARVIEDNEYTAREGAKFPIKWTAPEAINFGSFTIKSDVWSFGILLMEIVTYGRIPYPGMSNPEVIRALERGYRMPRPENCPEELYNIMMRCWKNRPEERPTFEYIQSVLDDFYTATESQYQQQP

Jak2 = Jak2 (UniProt O60674); assay: as above
MERTK = MERTK (UniProt Q12866); assay: as above
Chain of MERTK (Q12866 whole entry, looked up): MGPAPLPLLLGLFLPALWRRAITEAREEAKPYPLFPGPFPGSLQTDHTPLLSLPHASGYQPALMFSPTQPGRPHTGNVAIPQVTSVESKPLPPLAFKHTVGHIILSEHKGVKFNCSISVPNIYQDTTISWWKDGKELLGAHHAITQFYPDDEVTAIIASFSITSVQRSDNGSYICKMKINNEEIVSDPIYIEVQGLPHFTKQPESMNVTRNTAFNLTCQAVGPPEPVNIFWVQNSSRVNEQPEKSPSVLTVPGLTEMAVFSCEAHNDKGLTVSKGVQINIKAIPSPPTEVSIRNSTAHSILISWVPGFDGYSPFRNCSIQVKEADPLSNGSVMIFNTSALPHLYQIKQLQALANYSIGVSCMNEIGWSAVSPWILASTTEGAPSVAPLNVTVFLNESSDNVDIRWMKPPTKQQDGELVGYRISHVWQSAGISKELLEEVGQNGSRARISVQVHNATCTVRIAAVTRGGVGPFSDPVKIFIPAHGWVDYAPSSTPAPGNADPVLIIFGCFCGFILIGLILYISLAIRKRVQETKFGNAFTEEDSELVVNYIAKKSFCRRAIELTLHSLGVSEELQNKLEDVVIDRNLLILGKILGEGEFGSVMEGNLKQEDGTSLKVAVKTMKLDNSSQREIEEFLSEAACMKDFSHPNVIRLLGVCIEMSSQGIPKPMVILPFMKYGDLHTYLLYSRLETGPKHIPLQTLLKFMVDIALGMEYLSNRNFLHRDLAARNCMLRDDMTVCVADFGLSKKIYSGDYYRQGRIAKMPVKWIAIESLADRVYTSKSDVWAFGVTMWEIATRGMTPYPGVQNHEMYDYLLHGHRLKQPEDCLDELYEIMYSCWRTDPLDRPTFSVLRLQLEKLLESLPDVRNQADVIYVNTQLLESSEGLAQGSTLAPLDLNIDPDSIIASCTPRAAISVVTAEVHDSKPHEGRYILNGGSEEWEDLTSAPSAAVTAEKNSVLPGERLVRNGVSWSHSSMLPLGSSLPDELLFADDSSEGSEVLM

c-Abl (mouse) = assay: as above
c-Src = assay: as above
Grb2 SH2 = Grb2 SH2 (UniProt P62993); assay: SH2 binding enrichment of the phosphorylated peptide, bacterial display (enrichment ratio); higher = better substrate or ligand; peptides without Tyr show the background
Chain of Grb2 SH2 (P62993 whole entry, looked up): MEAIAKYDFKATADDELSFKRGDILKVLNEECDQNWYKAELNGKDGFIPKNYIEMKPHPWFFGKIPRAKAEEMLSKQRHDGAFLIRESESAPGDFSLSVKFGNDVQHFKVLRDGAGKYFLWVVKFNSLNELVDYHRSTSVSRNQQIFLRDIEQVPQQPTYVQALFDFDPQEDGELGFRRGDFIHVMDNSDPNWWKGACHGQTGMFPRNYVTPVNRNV

SHP2-C SH2 = assay: as above
c-Src SH2 = assay: as above
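For SH2 binding enrichment of the phosphorylated peptide, bacterial display in this document: peptide library displayed on the E. coli surface as eCPX fusions, selected cells deep-sequenced, score is each peptide's frequency after selection divided by its frequency in the input.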
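For phosphorylation enrichment, bacterial display in this document: 11-residue human phosphosite peptides and single-mutation variants displayed on the E. coli surface, counted by deep sequencing, each peptide's frequency after selection divided by its frequency in the unselected input library; frequency after pTyr selection over input frequency; kinase dosed for 20-30% of maximal phosphorylation in three min.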

Chain of Fyn (P06241 whole entry, looked up): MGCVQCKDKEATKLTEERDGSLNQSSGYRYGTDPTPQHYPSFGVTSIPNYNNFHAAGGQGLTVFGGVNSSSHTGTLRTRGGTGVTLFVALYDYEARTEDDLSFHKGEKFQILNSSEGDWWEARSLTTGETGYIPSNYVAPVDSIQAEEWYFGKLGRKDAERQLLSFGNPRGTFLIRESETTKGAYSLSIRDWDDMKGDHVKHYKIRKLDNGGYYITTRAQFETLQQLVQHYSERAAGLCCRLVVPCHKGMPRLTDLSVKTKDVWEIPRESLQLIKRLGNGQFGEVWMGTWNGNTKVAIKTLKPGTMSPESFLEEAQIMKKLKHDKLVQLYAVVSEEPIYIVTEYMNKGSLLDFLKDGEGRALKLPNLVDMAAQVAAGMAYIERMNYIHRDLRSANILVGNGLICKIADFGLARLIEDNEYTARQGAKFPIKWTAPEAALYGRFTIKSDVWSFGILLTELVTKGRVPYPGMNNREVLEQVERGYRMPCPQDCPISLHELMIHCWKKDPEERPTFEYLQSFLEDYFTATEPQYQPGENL
Chain of FGFR1 (P11362 whole entry, looked up): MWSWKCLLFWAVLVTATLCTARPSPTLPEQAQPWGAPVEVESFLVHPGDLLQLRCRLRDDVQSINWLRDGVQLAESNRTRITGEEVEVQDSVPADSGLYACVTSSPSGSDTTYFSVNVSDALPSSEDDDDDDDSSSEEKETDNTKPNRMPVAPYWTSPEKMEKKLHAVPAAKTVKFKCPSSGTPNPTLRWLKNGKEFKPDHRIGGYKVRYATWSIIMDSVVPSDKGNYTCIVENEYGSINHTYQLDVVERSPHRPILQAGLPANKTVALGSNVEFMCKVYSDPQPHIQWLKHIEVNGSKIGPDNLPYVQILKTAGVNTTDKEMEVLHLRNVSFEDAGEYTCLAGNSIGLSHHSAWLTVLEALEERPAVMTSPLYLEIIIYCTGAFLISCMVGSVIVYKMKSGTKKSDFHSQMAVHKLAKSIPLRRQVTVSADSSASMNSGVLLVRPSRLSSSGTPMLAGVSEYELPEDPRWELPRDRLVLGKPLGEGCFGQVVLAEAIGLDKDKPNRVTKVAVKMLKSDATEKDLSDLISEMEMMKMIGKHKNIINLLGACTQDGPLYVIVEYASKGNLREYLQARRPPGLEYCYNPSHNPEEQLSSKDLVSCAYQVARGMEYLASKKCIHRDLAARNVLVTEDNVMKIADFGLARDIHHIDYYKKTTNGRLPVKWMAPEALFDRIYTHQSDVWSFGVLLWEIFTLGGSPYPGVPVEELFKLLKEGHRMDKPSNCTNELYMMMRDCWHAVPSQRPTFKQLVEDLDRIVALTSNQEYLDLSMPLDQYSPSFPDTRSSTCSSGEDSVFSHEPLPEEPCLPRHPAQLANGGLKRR
Chain of EPHB2 (P29323 whole entry, looked up): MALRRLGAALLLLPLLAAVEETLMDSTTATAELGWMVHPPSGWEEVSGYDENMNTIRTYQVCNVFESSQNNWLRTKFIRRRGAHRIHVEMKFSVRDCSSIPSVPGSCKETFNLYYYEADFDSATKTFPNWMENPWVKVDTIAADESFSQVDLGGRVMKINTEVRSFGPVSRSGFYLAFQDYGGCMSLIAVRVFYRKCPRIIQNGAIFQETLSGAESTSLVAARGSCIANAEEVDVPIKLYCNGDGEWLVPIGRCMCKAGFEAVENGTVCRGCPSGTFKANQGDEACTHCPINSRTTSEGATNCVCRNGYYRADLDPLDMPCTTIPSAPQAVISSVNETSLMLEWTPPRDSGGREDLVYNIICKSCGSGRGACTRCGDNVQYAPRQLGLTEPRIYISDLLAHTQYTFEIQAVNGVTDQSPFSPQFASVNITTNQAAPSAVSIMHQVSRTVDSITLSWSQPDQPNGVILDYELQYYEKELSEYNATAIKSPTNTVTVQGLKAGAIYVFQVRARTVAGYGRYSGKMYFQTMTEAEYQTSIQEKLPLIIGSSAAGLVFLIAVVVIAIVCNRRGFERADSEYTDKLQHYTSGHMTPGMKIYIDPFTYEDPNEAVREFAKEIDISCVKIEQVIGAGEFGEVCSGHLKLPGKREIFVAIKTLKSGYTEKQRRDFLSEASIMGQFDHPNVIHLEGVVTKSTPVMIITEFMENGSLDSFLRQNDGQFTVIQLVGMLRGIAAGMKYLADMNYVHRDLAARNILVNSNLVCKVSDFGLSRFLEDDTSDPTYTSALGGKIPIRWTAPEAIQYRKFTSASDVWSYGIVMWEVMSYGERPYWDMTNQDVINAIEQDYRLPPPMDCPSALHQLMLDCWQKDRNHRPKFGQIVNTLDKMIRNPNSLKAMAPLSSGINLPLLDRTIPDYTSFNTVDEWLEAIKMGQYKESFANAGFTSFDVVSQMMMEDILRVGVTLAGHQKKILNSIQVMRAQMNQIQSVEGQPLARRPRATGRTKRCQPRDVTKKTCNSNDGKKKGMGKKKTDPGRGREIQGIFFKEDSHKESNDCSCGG
Chain of FGFR3 (P22607 whole entry, looked up): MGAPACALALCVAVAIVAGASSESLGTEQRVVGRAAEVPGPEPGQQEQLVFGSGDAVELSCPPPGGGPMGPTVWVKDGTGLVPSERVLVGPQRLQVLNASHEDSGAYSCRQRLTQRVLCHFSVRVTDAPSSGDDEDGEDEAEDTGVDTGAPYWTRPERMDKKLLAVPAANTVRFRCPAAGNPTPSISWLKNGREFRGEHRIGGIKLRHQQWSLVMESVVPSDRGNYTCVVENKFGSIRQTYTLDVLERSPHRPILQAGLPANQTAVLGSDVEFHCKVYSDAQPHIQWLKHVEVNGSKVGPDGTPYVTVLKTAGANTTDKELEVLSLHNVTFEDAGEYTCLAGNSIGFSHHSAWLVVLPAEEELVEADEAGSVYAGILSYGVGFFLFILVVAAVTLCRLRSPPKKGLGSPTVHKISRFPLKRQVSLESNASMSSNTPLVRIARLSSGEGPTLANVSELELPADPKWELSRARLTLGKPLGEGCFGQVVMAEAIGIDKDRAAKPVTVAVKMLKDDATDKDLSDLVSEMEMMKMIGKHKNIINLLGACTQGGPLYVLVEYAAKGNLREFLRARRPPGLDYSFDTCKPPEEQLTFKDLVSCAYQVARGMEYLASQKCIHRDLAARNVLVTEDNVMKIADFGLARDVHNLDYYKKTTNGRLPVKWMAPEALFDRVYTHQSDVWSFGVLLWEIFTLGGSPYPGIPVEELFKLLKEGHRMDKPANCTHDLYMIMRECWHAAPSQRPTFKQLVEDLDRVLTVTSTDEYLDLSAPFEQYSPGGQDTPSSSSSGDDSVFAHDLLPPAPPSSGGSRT

Sequence	phosphorylation enrichment (AncSZ)	phosphorylation enrichment (EPHB1)	phosphorylation enrichment (EPHB2)	phosphorylation enrichment (FGFR1)	phosphorylation enrichment (FGFR3)	phosphorylation enrichment (Fer (mouse))	phosphorylation enrichment (Fes)	phosphorylation enrichment (Fyn)	phosphorylation enrichment (Hck)	phosphorylation enrichment (Jak2)	phosphorylation enrichment (MERTK)	phosphorylation enrichment (c-Abl (mouse))	phosphorylation enrichment (c-Src)	SH2 binding enrichment (Grb2 SH2)	SH2 binding enrichment (SHP2-C SH2)	SH2 binding enrichment (c-Src SH2)
NTPNTYLRVNV [ADD2_Y440]	0.891	0.412	0.47	0.44	0.598	0.38	0.98	0.433	0.428	0.908	0.347	0.587	0.436	0.927	1.29	0.485
NTSKMYIPHTD [EXPH5_Y782_D777N]	0.663	0.35	0.423	0.415	0.523	0.469	0.609	0.45	0.462	0.562	0.462	0.532	0.474	0.897	0.68	0.386
NTTIHYNFMCN [TP53_Y234_C229N_YF]	1.14	0.698	0.618	0.542	0.828	0.557	1.24	0.495	0.511	1.02	0.427	0.782	0.46	0.848	0.701	0.598
NVDGKYSFLKV [GRM3_Y478_G475D_YF]	0.624	0.394	0.356	0.426	0.505	0.48	0.824	0.383	0.431	0.719	0.508	0.534	0.439	1.06	0.944	0.826
NVPILYTASQA [CTNNA1_Y222]	0.553	0.432	0.449	0.464	0.501	0.472	0.597	0.421	0.444	0.688	0.687	0.576	0.418	0.762	0.628	0.435
PAEPRYRARQR [KCNJ11_Y26]	1.02	0.635	0.722	0.576	0.599	0.673	0.718	0.746	0.878	1	0.929	0.737	0.958	0.675	0.788	0.474
PDDPNYSLVDD [PSTPIP2_Y323]	2.13	1.09	1.49	1.06	1.31	1.07	1.81	1.15	1.11	1.4	0.662	0.8	0.603	1.11	0.822	1.42
PDMHSYMVRYN [GRIN2D_Y732]	0.955	0.637	0.787	0.767	1.04	0.674	1.09	0.64	0.706	1.07	0.616	1.02	0.782	0.858	0.97	0.613
PEADKYHLTYA [FGG_Y300_R301H]	0.685	0.51	0.592	0.665	0.771	0.282	0.985	0.608	0.701	0.908	0.742	1.15	0.915	0.561	0.704	0.655
PEIIAYQPYGK [PRKCG_Y529]	0.852	0.585	0.665	0.823	0.723	0.537	1.08	0.68	0.82	1.31	0.589	1.15	0.523	0.747	0.676	0.622
PEVCDYGLGGG [GSTO1_Y239_A236V]	1.6	0.575	0.812	0.689	0.803	0.807	1.07	0.965	0.765	1.03	0.837	0.726	0.611	1.05	1.16	0.562
PFSNSYENSLI [EPOR_Y489_P488S_YF]	1.4	1.15	0.498	0.577	1.51	0.809	1.21	0.727	0.78	1.16	0.402	0.877	0.862	29.8	1.13	5.68
PINLYYLMDLS [ITGB2_Y131_D128N]	3.58	8.27	6.74	16.3	15.7	5.63	2.62	4.6	4.27	6.89	11.6	1.44	4.42	1.22	1.16	0.624
PIYEGYALPHA [ACTA1_Y171]	2.11	27.2	35.7	1.01	0.995	26.2	3.4	19.8	17.3	1.4	18.1	31.3	14.8	0.72	0.617	2.12
PKGWNYELPAT [PROM1_Y34_A31G]	1	0.597	0.454	0.518	0.592	0.433	0.867	0.531	0.516	0.698	0.45	0.696	0.383	1.14	0.613	1.25
PLDGEHFTLQI [TP53_Y327_Y327H]	1.62	0.577	0.632	0.587	0.885	0.646	1.87	0.668	0.786	1.43	0.465	1.19	0.605	0.644	2.55	0.451
PLDGEYVTLQI [TP53_Y327_F328V]	1.56	0.802	0.789	1.75	1.57	0.609	1.32	0.984	0.922	1.37	0.477	1.17	0.919	0.615	0.498	0.349
